Experimental data published in PMC9315497, “Structural Analysis of Ino2p/Ino4p Mutual Interactions and Their Binding Interface with Promoter DNA”.
Residue numbers refer to the chain shown, from its start.

Legend:
[1] = target: T1, Ino2pDBD WT;Ino4pDBD WT (Saccharomyces cerevisiae (genomic DNA …, UniProt P26798;P13902 230-304;40-117, |)); assay: EMSA; 20 mM Tris-HCl pH 8.0, 100 mM NaCl (buffer B); EMSA 1.5 uM DNA, 1.5-150 uM protein, 1 h on ice; ITC at 10 C, 400 uM DNA into 20 uM protein; details: protein: recombinant;recombinant, tags: N-terminal His6;none (with His-Ino2p), copies: 1;1
T1 sequence 1: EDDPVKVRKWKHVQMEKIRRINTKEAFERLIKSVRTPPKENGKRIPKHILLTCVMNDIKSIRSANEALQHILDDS
T1 sequence 2: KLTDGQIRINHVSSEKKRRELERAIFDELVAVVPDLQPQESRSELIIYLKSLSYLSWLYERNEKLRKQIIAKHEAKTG

[2] = target: T2, Ino2pDBD WT;Ino4pMut (Saccharomyces cerevisiae (genomic DNA …, UniProt P26798;P13902 230-304;40-117, |H50A;E54A;R57A;R58A)); assay: ITC; 10 C; 20 mM Tris-HCl pH 8.0, 100 mM NaCl (buffer B); EMSA 1.5 uM DNA, 1.5-150 uM protein, 1 h on ice; ITC at 10 C, 400 uM DNA into 20 uM protein; details: protein: recombinant;recombinant; tags: N-terminal His6;none; copies: 1;1; 14 bp with 5' overhang 1 nt at each end
T2 sequence 1: T1 sequence 1
T2 sequence 2: T1 sequence 2 with H11A, E15A, R18A, R19A

[3] = target: T1, Ino2pDBD WT;Ino4pDBD WT; assay: as above; details: protein: recombinant;recombinant; tags: N-terminal His6;none (with His-Ino2p); copies: 1;1; 14 bp with 5' overhang 1 nt at each end
[4] = target: T3, Ino2pMut;Ino4pDBD WT (Saccharomyces cerevisiae;Saccharomyces …, UniProt P26798;P13902 230-304;40-117, H241A;E245A;R249A;R273A|); assay: as above; details: protein: recombinant;recombinant; tags: N-terminal His6;none (with His-Ino2p); copies: 1;1; 14 bp with 5' overhang 1 nt at each end
T3 sequence 1: T1 sequence 1 with H12A, E16A, R20A, R44A
T3 sequence 2: T1 sequence 2

B1: 19bp-FAM promoter DNA (dsDNA)
DNA 1: GAATTTTCACATGCAGATC
DNA 2: GATCTGCATGTGAAAATTC
binding result ([1]; label: 5'-FAM on sense strand, blunt): binds

B2: Flanking mutant promoter DNA (dsDNA)
DNA 1: GAGGGTCACATGCAG
DNA 2: CTGCATGTGACCCTC
binding result [1]: binds

B3: 15bp-GC promoter DNA (dsDNA)
DNA 1: GATTTTCACATGCAG
DNA 2: CCTGCATGTGAAAAT
binding result [2]: no binding
Kd [3]: 749 nM
binding result [4]: no binding
